Test results reported in article PMC4917396.
Where “and” joins values, the source holds several entries; their conditions need not be identical. Identical values can stand only once.

What was measured:
[1] = target: recombinant full-length murine amelogenin with an uncleavable N-terminal histidine tag (rp(H)M180) (mouse); experiment: in situ AFM with volume analysis of adsorbates
[2] = target: recombinant full-length murine amelogenin with an uncleavable N-terminal histidine tag (rp(H)M180) (mouse); experiment: in situ AFM coverage with Hill fit
[3] = target: recombinant full-length murine amelogenin without tag (rpM179) (mouse); experiment: in situ AFM with volume analysis of adsorbates
[4] = target: recombinant full-length murine amelogenin without tag (rpM179) (mouse); experiment: DLS
[5] = target: recombinant full-length murine amelogenin without tag (rpM179) (mouse); experiment: in situ AFM with volume analysis of adsorbates; remark: listed apart in the source
[6] = target: recombinant full-length murine amelogenin without tag (rpM179) (mouse); experiment: in situ AFM with volume analysis of adsorbates; remark: listed apart in the source
[7] = target: recombinant full-length murine amelogenin without tag (rpM179) (mouse); experiment: in situ AFM coverage with Hill fit

Substance: recombinant full-length murine amelogenin with an uncleavable N-terminal histidine tag (rp(H)M180) (natural protein)
- stoichiometry N [1]: 25 monomers
- ln Ka [2]: 76.2 Ka in M^-n

Substance: recombinant full-length murine amelogenin without tag (rpM179) (natural protein)
- stoichiometry N [3]: 150 monomers
- stoichiometry N [4]: 200 monomers
- stoichiometry N [5]: 100 monomers and 200 monomers
- stoichiometry N [6]: 25 monomers
- ln Ka [7]: 3.35 Ka in M^-n
